Patent publication US20180044393A1 (INSERM INSTITUT NATIONAL DE LA SANT ET DE LA RECHERCHE M …, published 2018)
Positions of bridges follow the written chain, without caps; N, C: chain ends. No end group written: not given here. *: point of attachment. 125I = [125I]*

Experiments:
Assay in all cases: 125I-OxA binding on CHO-S cells expressing the OX1R mutant
OX1R K321A = target: T1, OX1R K321A (human, UniProt O43613 1-425)
T1 construct: site-directed mutant (TM6) stably expressed in CHO-S cells; not shown: YFP from vector pEYFP-N2 fused at the C-terminus
T1 chain: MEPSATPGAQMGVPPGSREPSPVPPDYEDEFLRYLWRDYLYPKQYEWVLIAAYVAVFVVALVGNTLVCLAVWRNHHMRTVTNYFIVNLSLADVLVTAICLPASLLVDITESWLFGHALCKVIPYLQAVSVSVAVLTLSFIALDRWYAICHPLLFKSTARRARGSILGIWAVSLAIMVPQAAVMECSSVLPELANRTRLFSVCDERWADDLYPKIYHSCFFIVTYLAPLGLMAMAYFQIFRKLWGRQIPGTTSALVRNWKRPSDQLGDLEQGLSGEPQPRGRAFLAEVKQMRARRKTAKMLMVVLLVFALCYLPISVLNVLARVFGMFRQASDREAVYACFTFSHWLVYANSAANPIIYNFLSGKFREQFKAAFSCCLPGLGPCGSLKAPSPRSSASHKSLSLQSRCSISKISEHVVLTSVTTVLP
Method: (§1) CHO—S cells expressing recombinant native or mutated OX1R were grown as previously described (El Firar et al., 2009) and maintained at 37° C. in a humidified 5% CO₂/air incubator. ¹²⁵I-orexia-A (74 TBq/mmol) was prepared as previously described (El Firar et al., 2009). […] Free peptides were removed by 2 cell washing cycles with PBS. […] Data were analyzed using the GraphPad software (http://www.graphpad.com).
(§2) All residues of OX1R fulfilling this condition were mutated to alanine by site-directed mutagenesis (Table II).

OX1R T341A = target: T2, OX1R T341A (human, UniProt O43613 1-425)
T2 construct: site-directed mutant (TM7) stably expressed in CHO-S cells; not shown: YFP from vector pEYFP-N2 fused at the C-terminus
T2 chain: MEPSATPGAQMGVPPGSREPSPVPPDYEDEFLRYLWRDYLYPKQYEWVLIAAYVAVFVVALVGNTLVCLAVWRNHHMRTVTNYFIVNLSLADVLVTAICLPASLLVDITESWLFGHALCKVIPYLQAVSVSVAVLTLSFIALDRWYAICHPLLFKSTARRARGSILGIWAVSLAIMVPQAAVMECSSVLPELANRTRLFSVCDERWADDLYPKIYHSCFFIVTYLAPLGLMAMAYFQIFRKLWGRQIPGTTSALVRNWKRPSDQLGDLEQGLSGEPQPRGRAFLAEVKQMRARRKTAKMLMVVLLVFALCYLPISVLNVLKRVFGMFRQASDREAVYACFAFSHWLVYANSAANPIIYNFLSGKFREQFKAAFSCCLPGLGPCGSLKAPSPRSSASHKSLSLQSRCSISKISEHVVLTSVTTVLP
Method: as §1, §2

OX1R F340A = target: T3, OX1R F340A (human, UniProt O43613 1-425)
T3 construct: site-directed mutant (TM7) stably expressed in CHO-S cells; not shown: YFP from vector pEYFP-N2 fused at the C-terminus
T3 chain: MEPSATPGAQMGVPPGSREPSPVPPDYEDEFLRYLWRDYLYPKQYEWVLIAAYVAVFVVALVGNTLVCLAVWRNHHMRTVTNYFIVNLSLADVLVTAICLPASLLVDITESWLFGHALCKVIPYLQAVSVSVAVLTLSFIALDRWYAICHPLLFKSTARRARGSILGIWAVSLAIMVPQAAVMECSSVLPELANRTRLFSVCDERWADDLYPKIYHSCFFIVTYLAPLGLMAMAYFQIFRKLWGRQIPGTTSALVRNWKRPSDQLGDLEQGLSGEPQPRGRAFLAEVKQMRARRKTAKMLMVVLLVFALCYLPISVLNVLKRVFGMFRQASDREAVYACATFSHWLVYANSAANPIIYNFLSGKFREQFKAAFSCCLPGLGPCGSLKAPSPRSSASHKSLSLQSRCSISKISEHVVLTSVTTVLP
Method: as §1, §2

OX1R P101A = target: T4, OX1R P101A (human, UniProt O43613 1-425)
T4 construct: site-directed mutant (TM2) stably expressed in CHO-S cells; not shown: YFP from vector pEYFP-N2 fused at the C-terminus
T4 chain: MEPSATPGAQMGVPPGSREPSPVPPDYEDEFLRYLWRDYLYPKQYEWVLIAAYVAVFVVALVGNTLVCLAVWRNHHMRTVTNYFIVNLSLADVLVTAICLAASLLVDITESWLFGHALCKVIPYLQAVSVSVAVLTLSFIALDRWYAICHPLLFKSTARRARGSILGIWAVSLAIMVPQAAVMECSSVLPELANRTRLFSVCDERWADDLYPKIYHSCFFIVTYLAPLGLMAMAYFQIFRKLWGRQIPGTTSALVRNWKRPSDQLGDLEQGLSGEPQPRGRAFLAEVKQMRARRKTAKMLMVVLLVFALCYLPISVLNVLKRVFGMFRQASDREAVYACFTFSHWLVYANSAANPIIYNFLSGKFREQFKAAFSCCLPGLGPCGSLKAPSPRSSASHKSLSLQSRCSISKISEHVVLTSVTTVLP
Method: as §1, §2

OX1R V319A = target: T5, OX1R V319A (human, UniProt O43613 1-425)
T5 construct: site-directed mutant (TM6) stably expressed in CHO-S cells; not shown: YFP from vector pEYFP-N2 fused at the C-terminus
T5 chain: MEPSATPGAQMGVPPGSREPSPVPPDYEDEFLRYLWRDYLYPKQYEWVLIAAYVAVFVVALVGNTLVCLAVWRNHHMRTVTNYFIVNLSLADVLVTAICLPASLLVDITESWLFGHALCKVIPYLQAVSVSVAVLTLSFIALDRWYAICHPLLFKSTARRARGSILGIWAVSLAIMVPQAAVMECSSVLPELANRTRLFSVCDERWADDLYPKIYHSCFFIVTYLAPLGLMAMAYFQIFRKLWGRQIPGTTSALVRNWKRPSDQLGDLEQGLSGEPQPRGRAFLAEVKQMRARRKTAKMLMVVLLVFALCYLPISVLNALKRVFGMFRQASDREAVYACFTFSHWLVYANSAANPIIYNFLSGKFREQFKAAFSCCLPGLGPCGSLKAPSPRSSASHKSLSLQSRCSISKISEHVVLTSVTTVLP
Method: as §1, §2

- binding result (OX1R K321A): binds
- binding result (OX1R T341A): binds
- binding result (OX1R F340A): binds
- binding result (OX1R P101A): binds
- binding result (OX1R V319A): binds
Binder: QPLPDCCRQKTCSCRLY(125I)ELLHGAGNHAAGILTL (peptide, UniProt O43612 34-66, looked up, disulfide 6-12, 7-14; not fully specified (residue 1, C-terminus), mature; also called OxA) [125I-orexin-A]
